# Assay: soluble on expression in E. coli; label from the status in PepcDB or PDB records
row,Sequence,soluble on expression in E. coli
1,HHHHHHSSGLVPRGSHMSCEELEIVWNNIKAEARTLADCEPMLASFYHATLLKHENLGSALSYMLANKLSSPIMPAIAIREVVEEAYAADPEMIASAACDIQAVRTRDPAVDKYSTPLLYLKGFHALQAYRIGHWLWNQGRRALAIFLQNQVSVTFQVDIHPAAKIGRGIMLDHATGIVVGETAVIENDVSILQSVTLGGTGKSGGDRHPKIREGVMIGAGAKILGNIEVGRGAKIGAGSVVLQPVPPHTTAAGVPARIVGKPDSDKPSMDMDQHFNGINHTFEYGDGI,soluble
2,MKYIVLLGDGMSDEAVKDLDGKTPLQAAKTPHMDVMARRGRIGLAHTVPKGLPPGSDVANLSVFGYDPRTCYTGRSPLEAASMGVQLGPDDVAFRVNLVNLLPTKGTLVMNDYSAGHISTEEGRELIEAIQQQIGDDEFQFYPGVGYRHLMVWRNGKSGMSATPPHDISGKSILDYLPKGEGADKLIYLMNSSQMILNNHPQYRRRLEADKIPANSIWLWGHGKAPRMEPFKEKFGLAGAVISAVDLINGIGIGAGLDVIRVEGATGYLDTNYEGKVQAALEALETHDYVYLHVEAPDEASHSGNLSHKLQAIEDFDARVVGPIMEGIRRFGSFRILCTPDHPTPLRLKTHTGAPVPFIIYDGGESEDDSIAGYDEDSARTSGLVLEEGHRLMELLLERLEHHHHHH,soluble
3,MFIPKSHTKLIYEYLFNEGVTVAKKDFNAKTHPNIEGVSNLEVIKTLKSLASRELVKEQFAWRHYYWYLTDAGILYLREYLALPAEIVPATIKTKPREIRVPHEDRAPRAAQGEKGDREAYRTEKVTEAGPGGAPVYRAGFGRGAPPPQ,not soluble
4,GSLDALGSQPIHLWQFLKELLLKPHSYGRFIRWLNKEKGIFKIEDSAQVARLWGIRKNRPAMNYDKLSRSIRQYYKKGIIRKPDISQRLVYQFVHPI,soluble
5,MGSDKIHHHHHHMNILEKLFSLKRKVALVTGGGQGIGKAIAQALAAAGAAVLIMDINEETARRTVEEIKEKGGEADFYVGDVTKEEDCFGAVKKALDRWGKLDIGVNNAGIGDWCEAENYPVEKWKKVIDVNLVGVFLSAKAEFHAMKERKYGKIINIASMSGHIVNKPQKQTAYNASKAGVIHLTRSLAAEWAPYGIRVNSISPGYIRTPLIESPNVKDLVPLWLDMIPLGRLGEVDDLIGAAIFLASPASDYMTGHDLVIDGGYTVW,not soluble
6,HGSMTDTYLHETLVFDNKLSYIDNQRDTDGPAILLLPGWCHDHRVYKYLIQELDADFRVIVPNWRGHGLSPSEVPDFGYQEQVKDALEILDQLGVETFLPVSHSHGGWVLVELLEQAGPERAPRGIIMDWLMWAPKPDFAKSLTLLKDPERWREGTHGLFDVWLDGHDEKRVRHHLLEEMADYGYDCWGRSGRVIEDAYGRNGSPMQMMANLTKTRPIRHIFSQPTEPEYEKINSDFAEQHPWFSYAKLGGPTHFPAIDVPDRAAVHIREFATAIRQGQ,soluble
7,MSLGSTTPISIFELVTRLENDSQVANDTKHLFFSGENIGYSEMIGRRPNMEDAIVIRENFREKLHIAAVFDGHSGHSVARSCAASLPDLLRNDETINSDAIKKHLDHINHVLLSSNDLAGSTMQFAIIDMNNNHLTIMQLGDSRSVVYKNDGRVTFYTQEMRPERRSELARLREDRIRLKRLRTGGMLACSTSIGDFQVKGISHEPEVIEMDISDDDRWIVIACDGLWDDVNNESAAKILLDSESPHVAATLLRDLAFQRGSEDNISVIVVDLDLLRNEGHHHHHH,soluble
8,MGSDKIHHHHHHMHDFLQFWLNEFSRSENPQHVNSVLTRAAATLGYEYAAYGMRRPFPISNPQILMVSNYPDRWQERYIEARFANVDSAVKAALGSDRPVTWSASTNASKSAFWAEALSFGIAHGWSSASRGADGTIGVLSLSRRQDAIDTAEKFRNESIVHWLANVAHASMAPFLPAADEFDPDLTRRETDVLKWTADGKTAYEIALILSISESTVNFHVKNIVSKLGSTNKIQAVAKAALMGML,not soluble
9,MGNSLHQIKCCTSFIHCQNAAVDAPSIAKTLADYLYPAFFHQDLPAPLKISVTGCPNQCGGGVEADIGISGYFATVPRVDDAGLMAANIDFGHLISGCPVGAIRPRQVEGGTTVVINAERCIRCTSCIQVAPEGIKPGPERFVAIAVGGHGGNNRRGPEMAAVVFSRVPARPLDYAAICERVQRIIACWRDRGKRGERLAGFLERLEHHHHHH,not soluble
10,MQILNKILPQVEFAIPRPSFDSLSRNKLVKKILSVFNLKQRFPQKNFGCPVNINKIRDSVIDKIKDSNSGNQLFCWMSQERTTYVSSMINRSIDEMAIHNGVVLTSDNKRNIFAAIEKKFPDIKLDEKSAQTSISHTALNEIASSGLRAKILKRYSSDMDLFNTQMKDLTNLVSSSVYDKIFNESTKVLQIEISAEVLKAVYRQSNTNLEHHHHHH,not soluble
11,MIELVIVSRLLEYPDAALWQHQQEMFEAIAASKNLPKEDAHALGIFLRDLTTMDPLDAQAQYSELFDRGRATSLLLFEHVHGESRDRGQAMVDLLAQYEQHGLQLNSRELPDHLPLYLEYLAQLPQSEAVEGLKDIAPILALLSARLQQRESRYAVLFDLLLKLANTAIDSDKVAEKIADEARDDTPQALDAVWEEEQVKFFADKGCGDSAITAHQRRFAGAVAPQYLNITTGGQH,not soluble
12,GPGSMIKIHTEKDFIKMRAAGKLAAETLDFITDHVKPNVTTNSLNDLCHNFITSHNAIPAPLNYKGFPKSICTSINHVVCHGIPNDKPLKNGDIVNIDVTVILDGWYGDTSRMYYVGDVAIKPKRLIQVTYDAMMKGIEVVRPGAKLGDIGYAIQSYAEKHNYSVVRDYTGHGIGRVFHDKPSILNYGRNGTGLTLKEGMFFTVEPMINAGNYDTILSKLDGWTVTTRDKSLSAQFEHTIGVTKDGFEIFTLSPKKLDYPPY,soluble
13,REQGFMFKKELGIESMEDLIEKIRYYKIINRNKGSGTRILFDKFLKENDIDKNSINGYDIEAKTHSAVGAAVSMGKAQIGLGISTISDHYDLEFIPIADENYDLLIPKEKLYDEDIIKFIETLKNEELPFKKSKDTGKIIYGC,not soluble
14,MEQTLRVSVFGATGYTGIELLRSLLTHPHFEVKNLISQSYKGKKVREVLPFFSNTYISEIEFLEEPVEDYELAFLCLPHEVSYEIVPKLLSQGKKVVDLSGAYRIKSPKAYEEFYGFKHEREDILQRAVYGLPEVFREEIKNSDLVANPGCYPTATLLAIYPFLKERVGIESVIVHALSGVSGAGRKPKQQFHFPEMTENFFNYAVEKHRHTPEMEDVIRRVYGREVKVRFTPTVVPTSRGMISTVYLKSEKLNVKELFKEVYEDEIFVKVVDEPPQTKWVLGTNYCFIYPHYDERTGYYVIISAIDNLGKGASLQAVQNANLMFGLAEDDGLLQLPVFP,soluble
15,MGSDKIHHHHHHMSLQSLKINFAEWLLLKVKYPSQYWLGAADQPVKAAAHQKKIILTLLPSHDNLGDHAIAYASKAFLEQEYPDFDIVEVDMKDIYKSAKSLIRSRHPEDMVFIIGGGNMGDLYRYEEWTRRFIIKTFHDYRVVQLPATAHFSDTKKGRKELKRAQKIYNAHPGLLLMARDETTYQFMKQHFQEKTILKQPDMVLYLDRSKAPAEREGVYMCLREDQESVLQEEQRNRVKAALCEEFGEIKSFTTTIGRRVSRDTREHELEALWSKLQSAEAVVTDRLHGMIFCALTGTPCVVIRSFDHKVMEGYQWLKDIPFMKLIEHPEPERVTAAVNELLTKETSRAGFPRDVYFKGLRDKISGEAQ,not soluble
16,MAHHHHHHMSTNISPNIKKGGVTAADLMQLQGAALRLRSQCTQREADNRRLTQKLREYEEQLFFLRANELILRKQVSVWSSYHRLFAQPLYEARLAVERYKHEAHQSLVHEMQVDRQRRSSLANAANEKRERERAGLQARLRQLQELQDEKRKKNEELELRLRRASEESLRAQKQASKLKDELAYCMDRLEESERERERVKRHLSEHEAALLKARHNVAGMGHFEEEIRSRDTVIAQLQRTVRELNTIMAQQSASRLEEANGENTPPQHEAEEKKLAASPQRLLNDSCDSEWVLKQSIGWFRSKMEREMKPSTPRRQMFEPCSSSAHPAPSLSSFSWMEGRCDSGDVDLQEFLSRELQAPLL,not soluble
17,MEHICGTSRIAGFRFSLYPMTDDFISVIKSALKKTDTSKVWTKTDHISTVLRGSIDHVFDAAKAIYLHAANSEQHIVMNGTFSIGCPGDTQGDTYLSKGDKRVNEDAVRGLKAEAPCQFALYPMNEPDYMGLIMEAVDIAKAQGTFVQGVHYASELDGDAHDVFSTLEAVFRMAEQQTNHITMTVNLSANSPSRKNRKQG,soluble
